Literature values, collected in PMC6684861 (Traffic (Copenhagen, Denmark), 2018).

Tested on: mouse embryonic fibroblasts
Details: ref unpublished observations

B1: DNA polymerase λ (protein, UniProt Q9UGP5 1-575, looked up)
DNA polymerase lambda: MDPRGILKAFPKRQKIHADASSKVLAKIPRREEGEEAEEWLSSLRAHVVRTGIGRARAELFEKQIVQHGGQLCPAQGPGVTHIVVDEGMDYERALRLLRLPQLPPGAQLVKSAWLSLCLQERRLVDVAGFSIFIPSRYLDHPQPSKAEQDASIPPGTHEALLQTALSPPPPPTRPVSPPQKAKEAPNTQAQPISDDEASDGEETQVSAADLEALISGHYPTSLEGDCEPSPAPAVLDKWVCAQPSSQKATNHNLHITEKLEVLAKAYSVQGDKWRALGYAKAINALKSFHKPVTSYQEACSIPGIGKRMAEKIIEILESGHLRKLDHISESVPVLELFSNIWGAGTKTAQMWYQQGFRSLEDIRSQASLTTQQAIGLKHYSDFLERMPREEATEIEQTVQKAAQAFNSGLLCVACGSYRRGKATCGDVDVLITHPDGRSHRGIFSRLLDSLRQEGFLTDDLVSQEENGQQQKYLGVCRLPGPGRRHRRLDIIVVPYSEFACALLYFTGSAHFNRSMRALAKTKGMSLSEHALSTAVVRNTHGCKVGPGRVLPTPTEKDVFRLLGLPYREPAERDW
nuclear/cytosolic ratio in mouse embryonic fibroblasts: 8
